Data published in US20210130838.

Key:
Assay in all cases: cell_activity
[1] = tested on: BsCas12a (Butyrivibrio sp.?); conditions: PAM TTTV
CMaCas12a = conditions: PAM TTTV; rice protoplasts
MAD7 = conditions: PAM TTTV
[2] = tested on: TsCas12a (Thiomicrospira sp.?); conditions: PAM TTTV; stable transgenic rice
BoCas12a = conditions: PAM TTTV; rice protoplasts
Lb5Cas12a = conditions: PAM TTTV; rice protoplasts
Mb2Cas12a = tested on: Mb2Cas12a
MbCas12a = conditions: PAM TTTV; rice protoplasts
MlCas12a = conditions: PAM TTTV; rice protoplasts

AAGAAGGGUUAUGGCCAAUGCUU / TCCATTTGTTTGAAGAAGGGTTATGGCCAATGCTTGCCC / GGGCAAGCATTGGCCATAACCCTTCTTCAAACAAATGGA [crRNA OsEPFL9 spacer 23 nt ; OsEPFL9-TTTV target]
activity ([1]; stable transgenic rice): > 80 % editing | activity (CMaCas12a): 5.1 % editing | activity (MAD7; stable transgenic rice): > 80 % editing | activity [2]: > 80 % editing

CAGAAAGAGAAGGAGGCACAGAU / CTTTTCCAGAAAGAGAAGGAGGCACAGATCTTGCCGT / ACGGCAAGATCTGTGCCTCCTTCTCTTTCTGGAAAAG [crRNA OsDEP1-TTTV spacer (inferred) ; OsDEP1-TTTV target]
activity (BoCas12a): 7.8 % editing | activity ([1]; rice protoplasts): 20.1 % editing | activity (CMaCas12a): 2.7 % editing | activity (Lb5Cas12a): 28.8 % editing | activity (MAD7; rice protoplasts): 34.1 % editing | activity (Mb2Cas12a; PAM TTTV, rice protoplasts): 19.7 % editing | activity (MbCas12a): 7.2 % editing | activity (MlCas12a): 13.9 % editing

CUCAAGGUGAGCGCCCCGCGGCG / GTTCCTCAAGGTGAGCGCCCCGCGGCGGCGGCGGCTG / CAGCCGCCGCCGCCGCGGGGCGCTCACCTTGAGGAAC [crRNA OsDEP1-TTV spacer (inferred) ; OsDEP1-TTV target]
activity (Mb2Cas12a; PAM TTV, 22 C): 6.4 % indels

CUGGGCUCGGCGUCCUCGACGUC / GAGTTGCTGGGCTCGGCGTCCTCGACGTCGTCCTCGCCG / CGGCGAGGACGACGTCGAGGACGCCGAGCCCAGCAACTC [crRNA OsR005-TTV spacer (inferred) ; OsR005-TTV target]
activity (Mb2Cas12a; PAM TTV, 22 C): 8.3 % indels
